Patent publication US20240392002A1 (EXELIXIS, published 2024)

How the values were obtained:
[1] = molecular target: T1, ROR1 Frizzled domain (human, UniProt Q01973 165-299); assay: BLI, IgG1 on biosensor, soluble ROR1 domain
T1 construct: also called FZ domain; Acro Cat. No. RO1-H5222
Description: (§1) To measure binding affinity in ROR binder discovery campaigns, the VL and VH domains identified in the phage screen described above were formatted into a bivalent monospecific native human full-length IgG1 architecture and immobilized to a biosensor on an Octet (Pall ForteBio) biolayer interferometer. Soluble ROR antigens, including the extracellular domains of ROR1 (Acro Cat. No. RO1-H522γ) and ROR2 (Acro Cat. No. R02-H52E5), as well as the individual ROR1 Frizzled (Acro Cat. No. RO1-H5222), Ig-like (Acro Cat. No. RO1-H5221), and Kringle (Acro Cat. No. RO1-H5223) domains, were then added to the system and binding measured.
(§2) ROR binding candidates, formatted in the bivalent monospecific native human full-length IgG1 architecture, were further characterized for binding to ROR1 and/or ROR2. […] ROR binding candidates were also characterized for their binding to specific ROR1 domains.

[2] = molecular target: T2, extracellular domain of human ROR1 (human, UniProt Q01973 30-406); assay: BLI, IgG1 on biosensor, soluble ROR ectodomain
T2 construct: bought protein; biotinylated in the bivalent assay format; also called Acro Cat. No. RO1-H522y
T2 sequence (Q01973 30-406 limits assumed): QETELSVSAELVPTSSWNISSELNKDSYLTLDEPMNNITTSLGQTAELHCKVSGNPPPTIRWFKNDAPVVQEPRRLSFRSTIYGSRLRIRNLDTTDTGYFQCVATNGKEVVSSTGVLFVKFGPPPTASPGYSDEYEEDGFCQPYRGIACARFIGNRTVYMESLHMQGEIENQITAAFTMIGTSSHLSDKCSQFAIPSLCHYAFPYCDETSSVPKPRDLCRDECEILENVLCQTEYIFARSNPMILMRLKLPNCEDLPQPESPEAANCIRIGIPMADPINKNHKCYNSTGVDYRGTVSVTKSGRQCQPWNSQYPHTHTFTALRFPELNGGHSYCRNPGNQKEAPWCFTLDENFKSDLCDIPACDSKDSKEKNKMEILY
Description: as §1, §2

[3] = molecular target: T3, extracellular domain of human ROR2 (human, UniProt Q01974 34-403); assay: BLI, IgG1 on biosensor, soluble ROR ectodomain
T3 construct: bought protein; biotinylated in the bivalent assay format; also called Acro Cat. No. RO2-H52E5
T3 sequence (Q01974 34-403 limits assumed): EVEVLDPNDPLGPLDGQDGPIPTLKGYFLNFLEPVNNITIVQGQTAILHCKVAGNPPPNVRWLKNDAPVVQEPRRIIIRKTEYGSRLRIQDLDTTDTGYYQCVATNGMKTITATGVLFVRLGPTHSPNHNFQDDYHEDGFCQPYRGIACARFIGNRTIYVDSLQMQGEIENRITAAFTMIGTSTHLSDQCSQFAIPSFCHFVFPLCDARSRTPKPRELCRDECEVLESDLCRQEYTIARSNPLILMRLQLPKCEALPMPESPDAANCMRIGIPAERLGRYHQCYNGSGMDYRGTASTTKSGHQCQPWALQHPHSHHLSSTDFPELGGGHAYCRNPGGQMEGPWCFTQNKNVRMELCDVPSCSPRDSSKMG
Description: as §1, §2

[4] = molecular target: T4, ROR1 Ig-like domain (human, UniProt Q01973 42-147); assay: BLI, IgG1 on biosensor, soluble ROR1 domain
T4 construct: also called Acro Cat. No. RO1-H5221
T4 sequence (Q01973 42-147): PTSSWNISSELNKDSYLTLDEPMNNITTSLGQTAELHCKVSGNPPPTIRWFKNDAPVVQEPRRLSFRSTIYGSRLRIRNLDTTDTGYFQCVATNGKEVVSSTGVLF
Description: as §1, §2

[5] = molecular target: T2, extracellular domain of human ROR1; assay: BLI (Octet), IgG1, two-fold serial dilution 200-12.5 nM
Description: as §1
The VH and VL sequences above were formatted into a bivalent monospecific native human full-length IgG1 architecture.

T1 sequence (Q01973 165-299): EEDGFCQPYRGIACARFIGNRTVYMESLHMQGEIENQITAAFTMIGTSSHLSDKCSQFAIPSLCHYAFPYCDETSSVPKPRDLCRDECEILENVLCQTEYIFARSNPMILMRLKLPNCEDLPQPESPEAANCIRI

B1: I2C-23 IgG1 (antibody, V domains shown)
VH: EVQLVESGGGLVQPGGSLRLSCAASGFTFSSYEIHWVRQAPGKGLEWVASIYPFSGDTYYADSVKGRFTISADTSKNTAYLQMNSLRAEDTAVYYCARPGRAIYYAVMDYWGQGTLVTVSS
VL: DIQMTQSPSSLSASVGDRVTITCRASQSVSSAVAWYQQKPGKAPKLLIYSASSLYSGVPSRFSGSRSGTDFTLTISSLQPEDFATYYCQQAGSHLFTFGQGTKVEIK
notes: human IgG1
- binding result [1]: binds
- binding result [2]: binds
- binding result [3]: binds

B2: I2C-4 IgG1 (antibody, V domains shown)
VH: EVQLVESGGGLVQPGGSLRLSCAASGFTFWSYFIHWVRQAPGKGLEWVAYIHPSSSYTDYADSVKGRFTISADTSKNTAYLQMNSLRAEDTAVYYCARTSRDGAMDYWGQGTLVTVSS
VL: DIQMTQSPSSLSASVGDRVTITCRASQSVSSAVAWYQQKPGKAPKLLIYSASSLYSGVPSRFSGSRSGTDFTLTISSLQPEDFATYYCQQWYSPPETFGQGTKVEIK
notes: human IgG1
- binding result [4]: binds
- binding result [2]: binds
- binding result [3]: binds

B3: I2A-19 IgG1 (antibody, V domains shown)
VH: EVQLVESGGGLVQPGGSLRLSCAASGFTFSSYFIHWVRQAPGKGLEWVAWIYPSGSYTYYADSVKGRFTISADTSKNTAYLQMNSLRAEDTAVYYCAREMDRVGYSGMDYWGQGTLVTVSS
VL: DIQMTQSPSSLSASVGDRVTITCRASQSVSSAVAWYQQKPGKAPKLLIYSASSLYSGVPSRFSGSRSGTDFTLTISSLQPEDFATYYCQQYRTPLGTFGQGTKVEIK
notes: human IgG1
- binding result [1]: binds
- binding result [2]: binds
- binding result [3]: binds

B4: I2C-6 IgG1 (antibody, V domains shown)
VH: EVQLVESGGGLVQPGGSLRLSCAASGFTFSWYFIHWVRQAPGKGLEWVARIYSTGGYTEYADSVKGRFTISADTSKNTAYLQMNSLRAEDTAVYYCARSAFFGALDYWGQGTLVTVSS
VL: DIQMTQSPSSLSASVGDRVTITCRASQSVSSAVAWYQQKPGKAPKLLIYSASSLYSGVPSRFSGSRSGTDFTLTISSLQPEDFATYYCQQYPSGPETFGQGTKVEIK
notes: human IgG1
- binding result [1]: binds
- binding result [2]: binds
- binding result [3]: binds

B5: I2A-25 IgG1 (antibody, V domains shown)
VH: EVQLVESGGGLVQPGGSLRLSCAASGFTFYGYTIHWVRQAPGKGLEWVAAIYPYTDSTRYADSVKGRFTISADTSKNTAYLQMNSLRAEDTAVYYCARDYRRALDYWGQGTLVTVSS
VL: DIQMTQSPSSLSASVGDRVTITCRASQSVSSAVAWYQQKPGKAPKLLIYSASSLYSGVPSRFSGSRSGTDFTLTISSLQPEDFATYYCQQYTDFPWTFGQGTKVEIK
notes: human IgG1
- binding result [1]: binds
- binding result [2]: binds
- binding result [3]: no binding

B6: I2A-34 IgG1 (antibody, V domains shown)
VH: EVQLVESGGGLVQPGGSLRLSCAASGFTFSWYVIHWVRQAPGKGLEWVAYIAPYTGSTYYADSVKGRFTISADTSKNTAYLQMNSLRAEDTAVYYCARAFFGIRLGLDYWGQGTLVTVSS
VL: DIQMTQSPSSLSASVGDRVTITCRASQSVSSAVAWYQQKPGKAPKLLIYSASSLYSGVPSRFSGSRSGTDFTLTISSLQPEDFATYYCQQAISSPYTFGQGTKVEIK
notes: human IgG1
- binding result [1]: binds
- binding result [2]: binds
- binding result [3]: binds

B7: I2C-10 IgG1 (antibody, V domains shown)
VH: EVQLVESGGGLVQPGGSLRLSCAASGFTFSSYFIHWVRQAPGKGLEWVATIHSYFDGTSYADSVKGRFTISADTSKNTAYLQMNSLRAEDTAVYYCARTRPTGGAFDYWGQGTLVTVSS
VL: DIQMTQSPSSLSASVGDRVTITCRASQSVSSAVAWYQQKPGKAPKLLIYSASSLYSGVPSRFSGSRSGTDFTLTISSLQPEDFATYYCQQAYWSPATFGQGTKVEIK
notes: human IgG1
- binding result [4]: binds
- binding result [2]: binds
- binding result [3]: binds

B8: I2C-9 IgG1 (antibody, V domains shown)
VH: EVQLVESGGGLVQPGGSLRLSCAASGFTFTDYDIHWVRQAPGKGLEWVARIWPHGSYTFYADSVKGRFTISADTSKNTAYLQMNSLRAEDTAVYYCARSLTHSYGFDYWGQGTLVTVSS
VL: DIQMTQSPSSLSASVGDRVTITCRASQSVSSAVAWYQQKPGKAPKLLIYSASSLYSGVPSRFSGSRSGTDFTLTISSLQPEDFATYYCQQYYTWLITFGQGTKVEIK
notes: human IgG1
- binding result [4]: binds
- binding result [2]: binds
- binding result [3]: binds

B9: I2A-11 IgG1 (antibody, V domains shown)
VH: EVQLVESGGGLVQPGGSLRLSCAASGFTFSSYVIHWVRQAPGKGLEWVAAIYPYTSSTQYADSVKGRFTISADTSKNTAYLQMNSLRAEDTAVYYCARSYGTGGFDYWGQGTLVTVSS
VL: DIQMTQSPSSLSASVGDRVTITCRASQSVSSAVAWYQQKPGKAPKLLIYSASSLYSGVPSRFSGSRSGTDFTLTISSLQPEDFATYYCQQWYSYPLTFGQGTKVEIK
notes: human IgG1
- binding result [1]: binds
- binding result [2]: binds
- binding result [3]: binds

B10: I2C-8 IgG1 (antibody, V domains shown)
VH: EVQLVESGGGLVQPGGSLRLSCAASGFTFSGYFIHWVRQAPGKGLEWVAAIFPYRGGTSYADSVKGRFTISADTSKNTAYLQMNSLRAEDTAVYYCARGGVSPGGFDYWGQGTLVTVSS
VL: DIQMTQSPSSLSASVGDRVTITCRASQSVSSAVAWYQQKPGKAPKLLIYSASSLYSGVPSRFSGSRSGTDFTLTISSLQPEDFATYYCQQYYLYPGTFGQGTKVEIK
notes: human IgG1; same CDRs as I2A-16; also called 12C-8
- binding result [4]: binds
- binding result [2]: binds
- binding result [3]: binds

B11: I2A-32 IgG1 (antibody, V domains shown)
VH: EVQLVESGGGLVQPGGSLRLSCAASGFTFQSYVIHWVRQAPGKGLEWVAAIYPYSSSTIYADSVKGRFTISADTSKNTAYLQMNSLRAEDTAVYYCARSWSVYLGMDYWGQGTLVTVSS
VL: DIQMTQSPSSLSASVGDRVTITCRASQSVSSAVAWYQQKPGKAPKLLIYSASSLYSGVPSRFSGSRSGTDFTLTISSLQPEDFATYYCQQSYDSPRTFGQGTKVEIK
notes: human IgG1
- binding result [1]: binds
- binding result [2]: binds
- binding result [3]: no binding

B12: I2A-10 IgG1 (antibody, V domains shown)
VH: EVQLVESGGGLVQPGGSLRLSCAASGFTFSSYFIHWVRQAPGKGLEWVAGIYPSDGYTSYADSVKGRFTISADTSKNTAYLQMNSLRAEDTAVYYCARYYVSGMDYWGQGTLVTVSS
VL: DIQMTQSPSSLSASVGDRVTITCRASQSVSSAVAWYQQKPGKAPKLLIYSASSLYSGVPSRFSGSRSGTDFTLTISSLQPEDFATYYCQQYYYYPGTFGQGTKVEIKR
notes: bivalent monospecific native human full-length IgG1; the Domain F / Domain A entries end with AS / RT of the junction to the constant domain; also called clone I2-A10
- binding result [3]: binds
- Kd [5]: 0.82 nM
- koff [5]: 0.00038 s⁻¹
- kon [5]: 538000 M⁻¹ s⁻¹

B13: I2C-2 IgG1 (antibody, V domains shown)
VH: EVQLVESGGGLVQPGGSLRLSCAASGFTFSDYFIHWVRQAPGKGLEWVAGIYPYSGYTKYADSVKGRFTISADTSKNTAYLQMNSLRAEDTAVYYCARDHSPVLDYWGQGTLVTVSS
VL: DIQMTQSPSSLSASVGDRVTITCRASQSVSSAVAWYQQKPGKAPKLLIYSASSLYSGVPSRFSGSRSGTDFTLTISSLQPEDFATYYCQQWYYWPGTFGQGTKVEIK
notes: human IgG1
- binding result [4]: binds
- binding result [2]: binds
- binding result [3]: binds
